Data reported in patent US7208293.

Experiments:
BPTI(K15L)-III MA phage = target: T1, BPTI(K15L)-III MA phage (bovine; phage M13); assay: pH elution from HNE beads
T1 construct: Whole M13 phage (ampicillin resistance) displaying the variant on gene III protein; also called BPTI(K15L)-III phage
Protocol: Samples were mixed on a Labquake shaker for 3 hours. The beads were washed with 0.5 ml of TBS/BSA for 5 minutes and recovered by centrifugation. The supernatant was removed and the beads were washed 5 times with 0.5 ml of TBS/0.1% Tween-20. Finally, the beads were resuspended in 0.5 ml of elution buffer (0.1 M HCl containing 1.0 mg/ml BSA adjusted to pH 2.2 with glycine), mixed for 5 minutes and recovered by centrifugation. The supernatant fraction was removed, neutralized with 130 µl of 1 M Tris, pH 8.0, diluted in LB broth, and titered for plaque-forming units on a lawn of cells.

[1] = target: T2, BPTI(K15L,MGNG)-III MA phage (bovine; phage M13); assay: phage eluted from HNE beads
T2 construct: also called BPTI3.CL; BPTI-IIIMK (K15L MGNG)
T2 sequence (chain, as listed by the source): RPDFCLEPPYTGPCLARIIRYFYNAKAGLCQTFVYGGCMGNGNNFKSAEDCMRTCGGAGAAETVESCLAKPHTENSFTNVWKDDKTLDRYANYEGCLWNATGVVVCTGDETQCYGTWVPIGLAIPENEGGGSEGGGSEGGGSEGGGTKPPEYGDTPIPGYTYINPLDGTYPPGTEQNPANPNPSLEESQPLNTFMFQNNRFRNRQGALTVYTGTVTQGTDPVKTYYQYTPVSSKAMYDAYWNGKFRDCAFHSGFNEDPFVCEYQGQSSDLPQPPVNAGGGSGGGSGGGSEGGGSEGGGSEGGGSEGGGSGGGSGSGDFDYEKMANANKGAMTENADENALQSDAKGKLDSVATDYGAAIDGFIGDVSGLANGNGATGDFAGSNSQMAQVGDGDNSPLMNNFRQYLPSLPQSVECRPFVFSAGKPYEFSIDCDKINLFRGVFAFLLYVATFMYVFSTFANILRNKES

B1: human neutrophil elastase (enzyme, UniProt P08246 30-247, looked up)
chain: IVGGRRARPHAWPFMVSLQLRGGHFCGATLIAPNFVMSAAHCVANVNVRAVRVVLGAHNLSRREPTRQVFAVQRIFENGYDPVNLLNDIVILQLNGSATINANVQVAQLPAQGRRLGNGVQCLAMGWGLLGRNRGIASVLQELNVTVVTSLCRRSNVCTLVRGRQAGVCFGDSGSPLVCNGLIHGIASFVRGGCASGLYPDAFAPVAQFVNWIDSIIQ
notes: also called HNE; HNE beads
binding result (BPTI(K15L)-III MA phage): binds | binding result [1]: binds
